According to US9493537 (STC UNM, dated 2016):
Positions of bridges follow the written chain, without caps; N, C: chain ends. Non-standard residues stand in square brackets, D forms with d. *: point of attachment. DOTA = O=C(O)CN1CCN(CC(=O)O)CCN(CC(=O)*)CCN(CC(=O)O)CC1; Nle = CCCC[C@H](N)C(=O)O

Assays:
[1] = biological target: T1, melanocortin-1 (MC1) receptor on B16/F1 murine melanoma cells (mouse (B16/F1 murine melanoma cells), UniProt Q01727 1-315); assay: competitive binding on B16/F1 melanoma cells against 125I-Tyr2-NDP-MSH; row head 'MC1R binding affinity (nM)'
T1 construct: whole, on cells; Endogenous receptor of the B16/F1 cells, in culture and as flank tumours in C57 mice; also called MCI receptor; MSH receptor
Procedure: (§1) The medium was aspirated after the incubation. The cells were rinsed twice with 0.5 mL of ice-cold pH 7.4, 0.2% BSA/0.01 M phosphate buffered saline (PBS) and lysed in 0.5 mL of 1 N NaOH for 5 minutes. The activities associated with cells were measured in a Wallac 1480 automated gamma counter (PerkinElmer, Waltham, Mass.). The $IC50$ value of each peptide was calculated using Prism software (GraphPad Software, La Jolla, Calif.).

[2] = biological target: T1, melanocortin-1 (MC1) receptor on B16/F1 …; assay: competitive binding on B16/F1 melanoma cells against 125I-Tyr2-NDP-MSH
Procedure: as §1

T1 sequence (Q01727 whole entry): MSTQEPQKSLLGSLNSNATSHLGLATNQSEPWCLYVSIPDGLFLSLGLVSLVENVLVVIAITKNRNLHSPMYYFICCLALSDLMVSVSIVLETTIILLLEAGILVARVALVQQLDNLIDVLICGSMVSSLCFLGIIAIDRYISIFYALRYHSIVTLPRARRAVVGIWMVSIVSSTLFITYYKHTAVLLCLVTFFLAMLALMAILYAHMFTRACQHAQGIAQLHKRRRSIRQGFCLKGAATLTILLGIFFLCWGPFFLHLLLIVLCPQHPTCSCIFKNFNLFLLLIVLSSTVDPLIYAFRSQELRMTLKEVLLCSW

IC50 [1] [nM]	fold lower receptor binding affinity than DOTA-GGNle-CycMSHhex and DOTA-GENle-CycMSHhex [2] [fold]	Binder
873	≥ 78	{DOTA}-[Nle]GEDH[dF]RWK-NH2 (lactam 4-9; SMILES CCCC[C@H](NC(=O)CN1CCN(CC(=O)O)CCN(CC(=O)O)CCN(CC(=O)O)CC1)C(=O)NCC(=O)N[C@@H](CCC(=O)O)C(=O)N[C@H]1CC(=O)NCCCC[C@@H](C(N)=O)NC(=O)[C@H](Cc2c[nH]c3ccccc23)NC(=O)[C@H](CCCNC(=N)N)NC(=O)[C@@H](Cc2ccccc2)NC(=O)[C@H](Cc2c[nH]cn2)NC1=O, Synthetic; also called DOTA-NleGlyGlu-CycMSHhex) [DOTA-NleGE-CycMSHhex]
2.1	–	{DOTA}-GG[Nle]DH[dF]RWK-NH2 (lactam 4-9; SMILES CCCC[C@H](NC(=O)CNC(=O)CNC(=O)CN1CCN(CC(=O)O)CCN(CC(=O)O)CCN(CC(=O)O)CC1)C(=O)N[C@H]1CC(=O)NCCCC[C@@H](C(N)=O)NC(=O)[C@H](Cc2c[nH]c3ccccc23)NC(=O)[C@H](CCCNC(=N)N)NC(=O)[C@@H](Cc2ccccc2)NC(=O)[C@H](Cc2c[nH]cn2)NC1=O, Synthetic; also called DOTA-GlyGlyNle-CycMSHhex) [DOTA-GGNle-CycMSHhex]
11.5	–	{DOTA}-GE[Nle]DH[dF]RWK-NH2 (lactam 4-9; SMILES CCCC[C@H](NC(=O)[C@H](CCC(=O)O)NC(=O)CNC(=O)CN1CCN(CC(=O)O)CCN(CC(=O)O)CCN(CC(=O)O)CC1)C(=O)N[C@H]1CC(=O)NCCCC[C@@H](C(N)=O)NC(=O)[C@H](Cc2c[nH]c3ccccc23)NC(=O)[C@H](CCCNC(=N)N)NC(=O)[C@@H](Cc2ccccc2)NC(=O)[C@H](Cc2c[nH]cn2)NC1=O, Synthetic; also called DOTA-GlyGluNle-CycMSHhex) [DOTA-GENle-CycMSHhex]
